Literature values, collected in publication PMC2787657.
pKd: −log10 of the molar value. Read-outs that look alike come from different tables or passages of the source.

Tests used:
[1] = biological target: CI-MPR cytoplasmic domain (Homo sapiens) (UniProt P11717)
[2] = biological target: CI-MPR cytoplasmic domain (Homo sapiens) (UniProt P11717); remark: listed apart in the source

UniProt P11717, sequence (P11717 2328-2491): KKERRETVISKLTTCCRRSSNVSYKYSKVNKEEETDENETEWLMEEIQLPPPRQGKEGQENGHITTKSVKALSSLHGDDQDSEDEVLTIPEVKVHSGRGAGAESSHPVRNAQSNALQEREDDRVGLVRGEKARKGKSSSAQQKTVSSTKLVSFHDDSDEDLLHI

TIP47 (from UniProt O60664)
pKd [1]: 6.52
pKd [2]: 6.05
